# Residue numbers refer to the chain shown, from its start.
# B1: GL1-M111-SA (-) (antibody, human IgG1, kappa, N297A)
# heavy: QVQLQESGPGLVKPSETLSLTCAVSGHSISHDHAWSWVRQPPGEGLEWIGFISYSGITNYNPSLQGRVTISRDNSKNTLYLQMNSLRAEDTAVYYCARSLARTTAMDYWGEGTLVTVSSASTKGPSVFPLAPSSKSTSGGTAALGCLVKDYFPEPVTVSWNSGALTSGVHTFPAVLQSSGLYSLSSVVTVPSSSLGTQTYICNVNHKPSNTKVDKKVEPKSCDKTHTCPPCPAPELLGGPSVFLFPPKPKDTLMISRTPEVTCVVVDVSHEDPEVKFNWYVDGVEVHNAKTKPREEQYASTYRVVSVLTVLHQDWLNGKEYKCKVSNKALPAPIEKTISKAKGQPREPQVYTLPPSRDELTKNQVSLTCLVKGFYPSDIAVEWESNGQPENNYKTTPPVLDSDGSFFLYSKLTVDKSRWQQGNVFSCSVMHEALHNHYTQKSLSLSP
# light: DIQMTQSPSSLSASVGDSVTITCQASTDISSHLNWYQQKPGKAPELLIYYGSHLLSGVPSRFSGSGSGTDFTFTISSLEAEDAATYYCGQGNRLPYTFGQGTKVEIERTVAAPSVFIFPPSDEQLKSGTASVVCLLNNFYPREAKVQWKVDNALQSGNSQESVTEQDSKDSTYSLSSTLTLSKADYEKHKVYACEVTHQGLSSPVTKSFNRGEC
# notes: No sugar chain on heavy or light chain; treated with neuraminidase
# B2: GL5-M111-SA (-) (antibody, human IgG1, kappa, N297A)
# heavy: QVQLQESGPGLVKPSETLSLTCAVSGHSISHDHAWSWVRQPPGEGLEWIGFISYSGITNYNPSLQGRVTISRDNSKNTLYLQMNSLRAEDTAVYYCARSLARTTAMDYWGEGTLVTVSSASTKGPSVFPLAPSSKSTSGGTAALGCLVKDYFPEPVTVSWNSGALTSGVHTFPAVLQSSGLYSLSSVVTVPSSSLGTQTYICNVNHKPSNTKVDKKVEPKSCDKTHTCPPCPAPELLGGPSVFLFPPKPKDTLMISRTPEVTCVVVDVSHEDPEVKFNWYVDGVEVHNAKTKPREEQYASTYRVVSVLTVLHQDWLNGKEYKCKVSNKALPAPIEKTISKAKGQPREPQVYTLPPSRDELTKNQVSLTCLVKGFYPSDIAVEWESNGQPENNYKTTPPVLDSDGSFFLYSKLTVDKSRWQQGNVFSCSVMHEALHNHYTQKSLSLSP
# light: B1 light with S18N, Q24N
# modifications: two N-linked complex sugar chains (G2/G3/G4 combinations) at the sites introduced by Thr 20 to Asn and Gln 24 to Asn (Kabat), sialic acid removed, terminal galactose exposed
# notes: Treated with neuraminidase
# B3: GL2-M111-SA (-) (antibody, human IgG1, kappa, N297A)
# heavy: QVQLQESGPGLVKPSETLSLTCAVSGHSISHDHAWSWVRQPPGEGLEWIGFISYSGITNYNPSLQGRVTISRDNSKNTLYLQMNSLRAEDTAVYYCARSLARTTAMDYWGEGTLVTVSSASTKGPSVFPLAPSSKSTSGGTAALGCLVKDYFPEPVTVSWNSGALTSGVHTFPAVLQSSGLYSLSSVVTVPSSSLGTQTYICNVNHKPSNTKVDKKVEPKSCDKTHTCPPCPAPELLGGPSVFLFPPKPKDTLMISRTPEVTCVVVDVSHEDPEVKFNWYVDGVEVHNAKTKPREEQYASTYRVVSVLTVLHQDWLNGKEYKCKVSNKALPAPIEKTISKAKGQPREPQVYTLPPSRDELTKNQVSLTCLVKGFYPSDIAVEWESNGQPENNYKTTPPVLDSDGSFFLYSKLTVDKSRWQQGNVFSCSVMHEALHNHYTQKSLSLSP
# light: B1 light with S18N
# modifications: N-linked complex sugar chain at the site introduced by Ser 18 to Asn (Kabat), sialic acid removed, terminal galactose exposed
# notes: Treated with neuraminidase
# B4: GL8-M111-SA (-) (antibody, human IgG1, kappa, N297A)
# heavy: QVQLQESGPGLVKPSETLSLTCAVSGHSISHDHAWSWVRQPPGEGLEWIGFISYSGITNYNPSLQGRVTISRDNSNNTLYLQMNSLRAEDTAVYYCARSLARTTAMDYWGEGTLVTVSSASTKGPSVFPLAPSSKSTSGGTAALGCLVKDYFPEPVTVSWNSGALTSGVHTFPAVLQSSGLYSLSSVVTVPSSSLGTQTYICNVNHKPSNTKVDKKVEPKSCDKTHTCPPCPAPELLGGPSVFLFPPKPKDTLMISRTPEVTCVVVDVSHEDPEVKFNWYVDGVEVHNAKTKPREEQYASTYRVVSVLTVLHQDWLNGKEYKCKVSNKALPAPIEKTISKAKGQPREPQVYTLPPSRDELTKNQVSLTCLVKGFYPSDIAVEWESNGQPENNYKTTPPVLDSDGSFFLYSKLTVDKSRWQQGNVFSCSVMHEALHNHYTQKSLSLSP
# light: B1 light with T20N
# modifications: N-linked complex sugar chain at the site introduced by Thr 20 to Asn (Kabat), sialic acid removed; N-linked complex sugar chain at the site introduced by Lys 75 to Asn (Kabat), sialic acid removed
# notes: Treated with neuraminidase
# B5: GL6-M111-SA (-) (antibody, human IgG1, kappa, N297A)
# heavy: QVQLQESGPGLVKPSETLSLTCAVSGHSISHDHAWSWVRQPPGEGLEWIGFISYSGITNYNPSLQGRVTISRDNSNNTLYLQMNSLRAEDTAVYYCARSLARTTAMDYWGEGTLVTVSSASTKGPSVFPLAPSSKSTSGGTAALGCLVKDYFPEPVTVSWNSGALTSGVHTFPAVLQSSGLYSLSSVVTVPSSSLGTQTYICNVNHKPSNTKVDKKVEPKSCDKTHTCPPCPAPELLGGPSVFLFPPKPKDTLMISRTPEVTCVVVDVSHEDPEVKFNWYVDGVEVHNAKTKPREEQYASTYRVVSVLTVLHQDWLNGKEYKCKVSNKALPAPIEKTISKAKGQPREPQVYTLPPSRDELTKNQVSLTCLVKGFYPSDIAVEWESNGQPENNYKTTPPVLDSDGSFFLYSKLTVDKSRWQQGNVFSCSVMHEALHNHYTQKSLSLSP
# light: B1 light
# modifications: N-linked complex sugar chain at the site introduced by Lys 75 to Asn (Kabat), sialic acid removed, terminal galactose exposed
# notes: Treated with neuraminidase
# B6: GL1-IgG1-SA (-) (antibody)
# heavy: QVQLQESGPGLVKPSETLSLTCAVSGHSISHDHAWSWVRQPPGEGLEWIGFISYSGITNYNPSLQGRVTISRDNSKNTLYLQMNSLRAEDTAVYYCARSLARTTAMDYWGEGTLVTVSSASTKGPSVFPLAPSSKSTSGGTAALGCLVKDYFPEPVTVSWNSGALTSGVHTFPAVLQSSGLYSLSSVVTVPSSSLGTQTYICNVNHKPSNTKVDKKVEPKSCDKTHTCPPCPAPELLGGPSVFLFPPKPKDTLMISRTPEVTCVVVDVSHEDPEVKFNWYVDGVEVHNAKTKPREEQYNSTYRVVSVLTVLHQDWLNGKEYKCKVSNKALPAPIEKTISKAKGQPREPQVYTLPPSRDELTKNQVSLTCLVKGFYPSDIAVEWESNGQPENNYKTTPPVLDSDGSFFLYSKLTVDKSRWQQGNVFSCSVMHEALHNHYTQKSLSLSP
# light: B1 light
# modifications: N-linked sugar chain at Asn 297 (EU numbering), terminal sialic acid removed
# notes: also called GL1-IgG1 treated with neuraminidase/sialidase; Fv4-IgG1
# B7: GL9-M111-SA (-) (antibody, human IgG1, kappa, N297A)
# heavy: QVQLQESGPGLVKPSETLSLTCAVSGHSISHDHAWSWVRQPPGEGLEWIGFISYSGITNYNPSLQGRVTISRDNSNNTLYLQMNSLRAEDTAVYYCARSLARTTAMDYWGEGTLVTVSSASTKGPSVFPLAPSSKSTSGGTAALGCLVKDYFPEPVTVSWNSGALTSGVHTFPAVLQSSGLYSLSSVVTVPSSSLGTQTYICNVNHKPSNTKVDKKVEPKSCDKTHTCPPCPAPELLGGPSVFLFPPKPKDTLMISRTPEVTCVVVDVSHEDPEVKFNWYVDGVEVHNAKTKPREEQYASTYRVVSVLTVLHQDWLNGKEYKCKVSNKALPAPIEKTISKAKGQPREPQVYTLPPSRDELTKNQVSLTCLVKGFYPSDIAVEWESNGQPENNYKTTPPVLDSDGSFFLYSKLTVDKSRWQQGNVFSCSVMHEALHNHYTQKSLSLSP
# light: B1 light with Q24N
# modifications: N-linked complex sugar chain at the site introduced by Gln 24 to Asn (Kabat), sialic acid removed; N-linked complex sugar chain at the site introduced by Lys 75 to Asn (Kabat), sialic acid removed
# notes: Treated with neuraminidase
# B8: GL4-M111-SA (-) (antibody, human IgG1, kappa, N297A)
# heavy: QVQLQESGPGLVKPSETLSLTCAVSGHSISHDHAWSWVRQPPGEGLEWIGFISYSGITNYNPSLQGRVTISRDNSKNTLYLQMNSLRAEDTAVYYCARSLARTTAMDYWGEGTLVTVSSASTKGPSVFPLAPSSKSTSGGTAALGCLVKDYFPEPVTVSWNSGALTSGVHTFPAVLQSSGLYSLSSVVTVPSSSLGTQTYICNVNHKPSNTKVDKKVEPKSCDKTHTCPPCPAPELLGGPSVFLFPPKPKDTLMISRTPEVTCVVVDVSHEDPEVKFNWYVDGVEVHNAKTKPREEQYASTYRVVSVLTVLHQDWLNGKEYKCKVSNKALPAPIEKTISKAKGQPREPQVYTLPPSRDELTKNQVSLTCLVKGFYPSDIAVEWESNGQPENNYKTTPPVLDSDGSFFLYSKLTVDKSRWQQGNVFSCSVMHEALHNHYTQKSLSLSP
# light: B1 light with Q24N
# modifications: N-linked complex sugar chain at the site introduced by Gln 24 to Asn (Kabat), sialic acid removed, terminal galactose exposed
# notes: Treated with neuraminidase
# B9: GL3-M111-SA (-) (antibody, human IgG1, kappa, N297A)
# heavy: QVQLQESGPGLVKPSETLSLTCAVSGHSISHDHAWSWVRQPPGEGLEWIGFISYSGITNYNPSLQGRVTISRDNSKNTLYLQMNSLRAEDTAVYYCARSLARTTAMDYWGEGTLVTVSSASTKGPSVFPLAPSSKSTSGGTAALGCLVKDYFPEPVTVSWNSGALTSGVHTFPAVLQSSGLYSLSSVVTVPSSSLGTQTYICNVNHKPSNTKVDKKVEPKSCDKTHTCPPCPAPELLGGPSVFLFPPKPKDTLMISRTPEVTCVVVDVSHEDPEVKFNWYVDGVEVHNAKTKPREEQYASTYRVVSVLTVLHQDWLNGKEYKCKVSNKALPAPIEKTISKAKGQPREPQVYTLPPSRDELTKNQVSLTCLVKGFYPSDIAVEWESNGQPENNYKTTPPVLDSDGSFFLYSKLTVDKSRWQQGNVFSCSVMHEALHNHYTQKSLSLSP
# light: B1 light with T20N
# modifications: N-linked complex sugar chain at the site introduced by Thr 20 to Asn (Kabat), sialic acid removed, terminal galactose exposed
# notes: Treated with neuraminidase
# B10: GL10-M111-SA (-) (antibody, human IgG1, kappa, N297A)
# heavy: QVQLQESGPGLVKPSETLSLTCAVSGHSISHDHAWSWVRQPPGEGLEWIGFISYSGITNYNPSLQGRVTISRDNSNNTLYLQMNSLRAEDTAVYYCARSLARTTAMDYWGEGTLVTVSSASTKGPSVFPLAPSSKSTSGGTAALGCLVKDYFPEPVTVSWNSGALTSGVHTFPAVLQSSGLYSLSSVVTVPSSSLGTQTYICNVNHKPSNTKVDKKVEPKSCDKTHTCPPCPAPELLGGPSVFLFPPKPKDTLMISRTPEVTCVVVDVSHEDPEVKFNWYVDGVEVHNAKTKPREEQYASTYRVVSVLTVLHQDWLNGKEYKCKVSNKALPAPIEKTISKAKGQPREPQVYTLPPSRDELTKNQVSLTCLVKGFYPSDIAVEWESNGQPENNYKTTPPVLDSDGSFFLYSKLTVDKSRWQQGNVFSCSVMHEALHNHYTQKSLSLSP
# light: B1 light with S18N, Q24N
# modifications: two N-linked complex sugar chains at the sites introduced by Thr 20 to Asn and Gln 24 to Asn (Kabat), sialic acid removed; N-linked complex sugar chain at the site introduced by Lys 75 to Asn (Kabat), sialic acid removed
# notes: Treated with neuraminidase
# B11: GL7-M111-SA (-) (antibody, human IgG1, kappa, N297A)
# heavy: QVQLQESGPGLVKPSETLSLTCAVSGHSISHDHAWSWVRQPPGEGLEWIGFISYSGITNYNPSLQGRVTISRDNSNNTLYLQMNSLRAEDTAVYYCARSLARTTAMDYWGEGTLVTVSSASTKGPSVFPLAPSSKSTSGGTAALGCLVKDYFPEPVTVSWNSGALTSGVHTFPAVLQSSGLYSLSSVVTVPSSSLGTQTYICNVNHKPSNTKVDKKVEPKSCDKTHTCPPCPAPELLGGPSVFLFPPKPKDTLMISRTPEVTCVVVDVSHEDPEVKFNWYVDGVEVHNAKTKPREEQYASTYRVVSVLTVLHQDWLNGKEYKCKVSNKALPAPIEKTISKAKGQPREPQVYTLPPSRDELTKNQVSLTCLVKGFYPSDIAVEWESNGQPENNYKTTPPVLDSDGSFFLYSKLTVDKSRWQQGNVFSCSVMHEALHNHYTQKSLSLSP
# light: B1 light with S18N
# modifications: N-linked complex sugar chain at the site introduced by Ser 18 to Asn (Kabat), sialic acid removed; N-linked complex sugar chain at the site introduced by Lys 75 to Asn (Kabat), sialic acid removed
# notes: Treated with neuraminidase
# B12: GL1-IgG1_kif+ (antibody)
# heavy: not shown
# light: B1 light
# modifications: high mannose sugar chain (expressed in the presence of kifunensine)
# notes: Expressed with 10 ug/mL kifunensine in the culture; also called GL1-G1_kif+
# B13: GL5-IgG1_kif+ (antibody)
# heavy: not shown
# light: B1 light with S18N, Q24N
# modifications: two high mannose N-linked sugar chains (Man6-Man9 with Man9) on the light chain; high mannose sugar chain (expressed in the presence of kifunensine)
# notes: Expressed with 10 ug/mL kifunensine in the culture; also called GL5-G1_kif+
# B14: H54/L28-IgG1 (antibody, V domains shown)
# VH: QVQLQESGPGLVKPSETLSLTCAVSGYSISDDQAWSWVRQPPGEGLEWIGYISYSGITNYNPSLKGRVTISRDTSKNQFSLKLSSVTAADTAAYYCARSLARTTAMDYWGEGTLVTVSS
# VL: DIQMTQSPSSLSASVGDSVTITCQASQDISSYLNWYQQKPGKAPELLIYYGSELHSGVPSRFSGSGSGTDFTFTISSLEAEDAATYYCQQGNSLPYTFGQGTKVEIER
# notes: Humanized anti-IL-6 receptor antibody without pH or Ca dependency; not treated with sialidase; also called H54/L28-IgG1-SA (+); H54L28-IgG1-SA (+)
# B15: GL1-IgG1-SA (+) (antibody)
# heavy: not shown
# light: B1 light
# modifications: N-linked sugar chain at Asn 297 (EU numbering), sialic acid not removed
# notes: Same chains as GL1-IgG1-SA (-), not treated with sialidase; also called Fv4-IgG1
# B16: GL5-IgG1-SA (-) (antibody)
# heavy: not shown
# light: B1 light with S18N, Q24N
# modifications: N-linked sugar chains at two sites of the light chain (Asn 20 and Asn 24, Kabat), sialic acid removed; N-linked sugar chain at Asn 297 (EU numbering), terminal sialic acid removed
# notes: Treated with sialidase
# Biological target: T1, soluble human IL-6 receptor (human, UniProt P08887 20-357)
# T1 construct: also called hsIL-6R; hIL6R
# T1 sequence: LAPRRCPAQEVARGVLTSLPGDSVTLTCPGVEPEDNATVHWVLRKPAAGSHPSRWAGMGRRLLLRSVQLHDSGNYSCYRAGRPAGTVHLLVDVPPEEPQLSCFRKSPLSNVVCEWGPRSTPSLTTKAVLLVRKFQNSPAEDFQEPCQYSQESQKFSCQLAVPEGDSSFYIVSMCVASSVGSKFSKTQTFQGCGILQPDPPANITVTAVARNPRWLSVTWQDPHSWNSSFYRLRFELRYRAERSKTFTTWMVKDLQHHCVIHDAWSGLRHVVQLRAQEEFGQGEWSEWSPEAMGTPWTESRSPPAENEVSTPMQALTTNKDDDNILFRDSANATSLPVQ
# Experiment: SPR (Biacore T100), antibody captured on anti-human IgG F(ab')2, human IL-6 receptor as analyte, 37 C, pH 7.4
# Method: (§1) Then, kinetic analysis of an antigen-antibody reaction between each of GL1-M111-SA (−) and GL5-M111-SA (−) and a human IL-6 receptor was performed by using Biacore T100 (GE Healthcare). In both cases, measurement was performed by using an antibody treated with sialidase as a sample. An appropriate amount of Anti-Human IgG (γ-chain specific) F(ab′)2 fragment antibody produced in goat (Sigma) was immobilized onto Sensor chip CM5 (GE Healthcare) in accordance with the amine coupling method and then a target antibody was allowed to capture. Subsequently, a human IL-6 receptor dilution solution and a running buffer (a blank) were injected at a flow rate of 20 μL/min for 3 minutes to allow the human IL-6 receptor to interact with the antibody captured on the sensor chip. Either one of two types of running buffers pH 7.4 and pH 6.0 containing 10 mmol/L ACES, 150 mmol/L NaCl, and 0.05% (w/v) Tween20 was used, and each buffer was employed for dilution of IL-6R. Thereafter, a running buffer was fed at a flow rate 20 μL/min for 5 minutes. After dissociation of the IL-6 receptor was observed, 10 mmol/L Glycine-HCl (pH 1.5) was injected at a flow rate 30 μL/min for 5 seconds. […] All samples were measured at 37° C. […] From the values, KD (M) of each antibody to a human IL-6 receptor was calculated. Individual parameters were calculated by use of Biacore T100 Evaluation Software (GE Healthcare).
row,Binder,Kd [nM]
1,B1,2
2,B2,1.9

# Biological target: T1, soluble human IL-6 receptor
# Experiment: SPR (Biacore T100), antibody captured on protein A, human IL-6 receptor as analyte, 37 C, pH 6.0
# Method: (§2) Kinetic analysis on the antigen-antibody reaction between each of GL1-IgG1-SA (−), GL1-M111-SA (−), GL2-M111-SA (−), GL3-M111-SA (−), GL4-M111-SA (−), GL5-M111-SA (−), GL6-M111-SA (−), GL7-M111-SA (−), GL8-M111-SA (−), GL9-M111-SA (−), GL10-M111-SA (−) and a human IL-6 receptor was performed by use of Biacore T100 (GE Healthcare). An appropriate amount of protein A (Invitrogen) was immobilized onto Sensor chip CM5 (GE Healthcare) by the amine coupling method and then a target antibody was allowed to capture. Subsequently, a human IL-6 receptor dilution solution and a running buffer (a blank) were injected at a flow rate of 20 μL/min for 3 minutes to allow the human IL-6 receptor to interact with the antibody captured on the sensor chip. Either one of two types of running buffers pH 7.4 and pH 6.0 containing 10 mmol/L ACES, 150 mmol/L NaCl, and 0.05% (w/v) Tween20 was used and each buffer was employed for dilution of IL-6R. Thereafter, the running buffer was fed at a flow rate of 20 μL/min for 5 minutes. After observation of dissociation of the IL-6 receptor, 10 mmol/L Glycine-HCl (pH 1.5) was injected at a flow rate of 30 μL/min for 30 seconds to regenerate the sensor chip. All samples were measured at 37° C. From the sensorgram obtained by measurement, an association constant, ka (1/Ms) and a dissociation constant, kd (1/s) as kinetics parameters were computationally obtained. Based on the obtained values, KD (M) of each antibody to a human IL-6 receptor was calculated. Individual parameters were calculated by use of Biacore T100 Evaluation Software (GE Healthcare).
row,Binder,Kd [nM]
1,B1,150
2,B3,110
3,B2,99
4,B4,110
5,B5,110
6,B6,150
7,B7,110
8,B8,140
9,B9,80
10,B10,130
11,B11,150

# Biological target: T1, soluble human IL-6 receptor
# Experiment: SPR (Biacore T100), antibody captured on protein A, human IL-6 receptor as analyte, 37 C, pH 7.4
# Method: as §2
row,Binder,Kd [nM]
1,B1,1.8
2,B3,1.6
3,B2,1.5
4,B4,2
5,B5,2.6
6,B6,1.8
7,B7,2.3
8,B8,1.7
9,B9,1.3
10,B10,2.4
11,B11,2.4

# Biological target: T1, soluble human IL-6 receptor
# Experiment: SPR (Biacore T100), antibody captured on anti-human IgG F(ab')2, human IL-6 receptor as analyte, 37 C, pH 6.0
# Method: as §1
row,Binder,Kd [nM]
1,B1,66
2,B2,57

# Biological target: T1, soluble human IL-6 receptor
# Experiment: SPR (Biacore T100), antibody captured on anti-human IgG F(ab')2, human IL-6 receptor as analyte, 37 C, pH 7.4
# Remark: another data set of the same source
# Method: (§3) Using Biacore T100 (GE Healthcare), kinetic analysis of antigen-antibody reactions between each of GL1-IgG1_kif+ and GL5-IgG1_kif+ and a human IL-6 receptor was performed. An appropriate amount of Anti-Human IgG (γ-chain specific) F(ab′)2 fragment antibody produced in goat (Sigma) was immobilized onto Sensor chip CM5 (GE Healthcare) by the amine coupling method and then a target antibody was allowed to capture. Subsequently, a human IL-6 receptor dilution solution and a running buffer (a blank) were injected at a flow rate of 20 μL/min for 3 minutes to allow the human IL-6 receptor to interact with the antibody captured on the sensor chip. Either one of two types of running buffers (pH 7.4 and pH 6.0 containing 10 mmol/L ACES, 150 mmol/L NaCl, and 0.05% (w/v) Tween20) was used, and each buffer was employed for dilution of IL-6R. Thereafter, a running buffer was fed at a flow rate 20 μL/min for 5 minutes. After dissociation of the IL-6 receptor was observed, a 10 mmol/L Glycine-HCl (pH 1.5) solution was injected at a flow rate of 30 μL/min for 5 seconds. This procedure was repeated five times to regenerate the sensor chip. All samples were measured at 37° C. […] From the values, KD (M) of each antibody to a human IL-6 receptor was calculated. Individual parameters were calculated by use of Biacore T100 Evaluation Software (GE Healthcare).
row,Binder,Kd [nM]
1,B12,1.5
2,B13,1.4

# Biological target: T1, soluble human IL-6 receptor
# Experiment: SPR (Biacore T100), antibody captured on anti-human IgG F(ab')2, human IL-6 receptor as analyte, 37 C, pH 6.0
# Remark: another data set of the same source
# Method: (§4) GL1-IgG1-SA (−) and GL5-IgG1-SA (−) were treated with sialidase and then used as measurement samples. An appropriate amount of Anti-Human IgG (γ-chain specific), F(ab′)2 fragment antibody produced in goat (Sigma) was immobilized onto Sensor chip CM5 (GE Healthcare) in accordance with the amine coupling method and then a target antibody was allowed to capture. Subsequently, a human IL-6 receptor dilution solution and a running buffer (a blank) were injected at a flow rate of 20 μL/min for 3 minutes to allow the human IL-6 receptor to interact with the antibody captured on the sensor chip. Either one of two types of running buffers pH 7.4 and pH 6.0 containing 10 mmol/L ACES, 150 mmol/L NaCl, and 0.05% (w/v) Tween20 was used and each buffer was employed for dilution of IL-6R. Thereafter, a running buffer was fed at a flow rate 20 μL/min for 5 minutes. After dissociation of the IL-6 receptor was observed, 10 mmol/L Glycine-HCl (pH 1.5) was injected at a flow rate of 30 μL/min for 5 seconds. This procedure was repeated five times to regenerate the sensor chip. All samples were measured at 37° C. From the sensorgram obtained by measurement, an association constant, ka (1/Ms) and a dissociation constant kd (1/s) as kinetics parameters were computationally obtained. From the values, KD (M) of each antibody to a human IL-6 receptor was calculated. Individual parameters were calculated by use of Biacore T100 Evaluation Software (GE Healthcare).
row,Binder,Kd [nM]
1,B14,3.4
2,B6,61
3,B15,66
4,B16,52

# Biological target: T1, soluble human IL-6 receptor
# Experiment: SPR (Biacore T100), antibody captured on anti-human IgG F(ab')2, human IL-6 receptor as analyte, 37 C, pH 7.4
# Remark: another data set of the same source
# Method: as §4
row,Binder,Kd [nM]
1,B14,3.9
2,B6,2.2
3,B15,2.1
4,B16,1.9

# Biological target: T1, soluble human IL-6 receptor
# Experiment: SPR (Biacore T100), antibody captured on anti-human IgG F(ab')2, human IL-6 receptor as analyte, 37 C, pH 6.0
# Remark: another data set of the same source
# Method: as §3
row,Binder,Kd [nM]
1,B12,71
2,B13,66

# From patent US20150299313A1 (Chugai, published 2015)
